# Assay results from publication PMC11241748, “DNA Repair Protein XRCC1 Stimulates Activity of DNA Polymerase λ under Conditions of Microphase Separation”.
# B1: gap-DNA (dsDNA)
# DNA 1: GGCGATTAAGTTGGG
# DNA 2: AACGTCAGGGTCTTCC
# DNA 3: GGAAGACCCTGACGTTGCCCAACTTAATCGCC
# modifications: 5'-phosphate on downstream strand (5' margin of gap)
# Biological target: XRCC1 (UniProt P18887 1-633)
# Experiment: DLS (DNA-induced higher-order assembly); elevated DNA concentration; Rh ~135 to ~740 nm vs 6.7 nm without DNA; DLS and microscopy buffer not given in the material; activity assay: 50 mM Tris-HCl pH 7.5, 5 mM Mg2+, 0.5 mM DTT, 0.25 mg/mL BSA, 37 °C. Kd values in Table 1 a
# Conditions: protein: recombinant; tags: His-tag; chain copies: 2; label: 5'-32P on upstream strand as printed; 1-nt gap (template G) between strands 1 and 2, both paired to strand 3; blunt outer ends
binder,measurement,value
B1,binding result,binds
